Experiment: yeast display, Sf9 membrane polyspecificity reagent, FACS + sequencing; frameworks hold sequencing errors
Outline: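 A nanobody's polyreactivity label depends on the gate it was sorted from. Yeast display cells were stained with 10% biotinylated, detergent-solubilized Sf9 membrane reagent for 1 hour at 4 °C, enriched on streptavidin microbeads and sorted by FACS. The low and high (top ~1%) gates were set on anti-HA fluorescence for expression and streptavidin fluorescence for reagent binding.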

Sequence | polyreactivity (PSR sort gate)
QVQLVESGGGLVQAGGSLLLSCAASGITFGVYAMGWYRQAPGKERELVAAISVNGGSTYYADSVKGRFTISRDNAKNTVYLQMNSLNPQDTAVYSCAADVLYYIDDDSIIEYDYWGQGTQVTVSS | low polyreactivity
QVQLVESGGGLVQAGGSLLLSCAASGITFSYYAMGWYRQAPGKERELVAAISRTGTSTYYADSVKGRFTISRDNAKNTVYLQMKSLKPEDTAVYYCAAVPRHPYHDKYDYWGQGTQVTVSS | high polyreactivity
QVQLVESGGGLVQAGGSLLLSCAASGITSYYYAMGGYRQAPGKERELVAAITRGGRTKYADSVKGRFTISRDNAKNTVYLQMNSLKPEDTAVYYCAADVWGQGTQVTVSS | high polyreactivity
QVQLVESGGGLVQAGGSLLLSCAASGLIFDPYAMGWYRQAPGKERELVADISSGGSTNYADSVKGRFTISRDNAKNTVYLQMNSLKPEDTAVYYCNKTIILDGYYFSLTLYDSWGQGTQVTVSS | low polyreactivity
QVQLVESGGGLVQAGGSLLLSCAASGLTFRRYNMGWYRQAPGKERELVAAISYSGGSTYYADSVKGRFTISRDNAKNTVYLQMNSLKPEDTAVYYCNDRYARVKQYGYWGQGTQVTVSS | low polyreactivity
QVQLVESGGGLVQAGGSLLLSCAASGRIFQFYAMGWYRQAPGKERELVAGITTSGGSTYYADSVKGRFTISRDTAKNTVYLQMNSLKPEDTAVYYCAKRYYSSQFSKFGYWGQGSQVTVSS | high polyreactivity
QVQLVESGGGLVQAGGSLLLSCAASGRIFYGNAMGWYRQAPGKERELVAPISSGTSTNYADSVKGRFTISRDNGKNTVYLQMNSLKPEDTAVYYCAAGSYSRYLYSLYFDFDYWGQGTQVTVSS | low polyreactivity
QVQLVESGGGLVQAGGSLLLSCAASGRIIGYYAMGLYRQAPVKERELVAAISRRGGSTYYADSVKGRFTISRDNAKNTVYLQINSLKPEDTAVYYCNADRVLTRPRYDYWGQGTQVTVSS | low polyreactivity
QVQLVESGGGLVQAGGSLLLSCAASGRTFAPYAMGWYRQAPGKERELVAAISSGGGNTYYADSVKGRFTISRDNAKNTVYLQMNSMKPEDTAVYYCAKPRARQDFDYWGQGTKVTVSS | high polyreactivity
QVQLVESGGGLVQAGGSLLLSCAASGRTFWPYAMGWYRQAPGKERELVAAITSDGSTTYADSVTGRFTISRDNAKNTVYLQMNSLTPEDTAVYFCAAYGYYYYQTIPMDYWGQGTQVTVSS | low polyreactivity
QVQLVESGGGLVQAGGSLLLSCAASGSIFGWYVMGWYRQEPGKERELVAAISSVGSTYYADSVKGRFTISRDNAKNTVYLQMNSLKPEDTAVYYCATDSNPKWDYALDSWGQGTQVTVSS | low polyreactivity
QVQLVESGGGLVQAGGSLLLSCAASGSIFYSNAMAWYRQAPGKERELVATITWSGGRTYYADSVKGRFTISRDNAKNTVYLQMNSLKPDDTAVYYCAAVSIYWGQGTQVTVSS | low polyreactivity
QVQLVESGGGLVQAGGSLLLSCAASGSILSKNAMGWYRQAPGKDRELVAAITWSGGSTYYADSVKGRFTISRDNAKNTVYLQMNSLKPEDTADYSCAADLDWSPQFGLPYDYWGQGTQVTVSS | low polyreactivity
QVQLVESGGGLVQAGGSLLLSCAASGSTFYYNAMGWYRQATGKERELVARISRSGGSTYADSVKGRFTISRDNAKNTVYLQMNSLKPEDTAVYYCNADAYGTPEFTSYAVRYDYWGQGTQVTVSS | low polyreactivity
QVQLVESGGGLVQAGGSLLLSCAASGSTLDPNVMGWYRPAPGKERELVAAITSGGSTYYADSVKGRFTISRDNAKNTVYLQMNSLKPEDTAVYYCNKDKGWLAHSRIWLWYDYWGQGTQVTVSS | low polyreactivity
QVQLVESGGGLVQAGGSLLLSCAASGSTSQPYAMGWYRQAPGKERELVASITNGGITYYADSVKGRFTISRDNAKNTVYLQLNSLKPEVTAVYYCNADNVFEGYDRRSARACYRYYYWGQGTQVTVSS | low polyreactivity
QVQLVESGGGLVQAGGSLLLSCAPSGSTIPSYAMGWYRQSPGKERELVASITYSDGTTRYADSVKGRFTISRDNAKNTVYLQMNSLKPEDTAVYYCNAVYYREGMDYWGQGTQVTVSS | low polyreactivity
QVQLVESGGGLVQAGGSLLLSSAASGRTFWMYAMGWNRQAPGKESELVAGITWRGGSTYYADSVKGRFTISRDIAKNTVYLQMNSQKPEDTAVYYFAAEFWVSRSIWVYYYWGQGTQVTVSS | high polyreactivity
QVQLVESGGGLVQAGGSLPLSCAASGFIFGTNTMGWYRQAPGKEREMVAAITSVGSTNYADSVKGRFTISRDNAKNTVYLQMNSLKPEDTAVYYCPATLYYQYGGDYWGQGTQVTVSS | low polyreactivity
QVQLVESGGGLVQAGGSLPLSCAASGGTFRGNAMGWYRQAPGKERELVAAITGSGGSTYYADSVTGRFTISRDNAKNTVYLQMNSLKPEDSAVYYCAVDRASRRTYNQYGYWGQGTQVTVSS | high polyreactivity
QVQLVESGGGLVQAGGSLPLSCAASGITIYGYAMGWYRQAPGKESELVAAMSTSGGRTYYADSVKGRFTISRDNAKNTVYLQMNSMKPEDTAVYYCAVAPYKGTWDSRSSWRRRAYWGQGTQVTVSS | high polyreactivity

Sequence | polyreactivity (PSR sort gate)
QVQLVESGGGLVQAGGSLPLSCAASGRIFKDNAMGWYRQAPGNEREMVAAISSGASTSYADSVKGRFTISRDYAKNTVYLQRNSLKPEDTAVYYCNGGGDLYYPGWLFDYWGQGTQVTVSS | low polyreactivity
QVQLVESGGGLVQAGGSLPLSCAASGRIIDRYAMGWSRQATGKERDLVASISSGGSTYYADSVKGRFTISRDNAKNTVYLQMNSLKPEDTAVYYCNAEARSRRYRYDYWGQGTQVTVSS | high polyreactivity
QVQLVESGGGLVQAGGSLPLSCAASGRTFDVYPMGWYRQAPGKERELVAAINGGGSTYYADSVKGRFTISRDNAKNTVYLQINSLKPEDTALYYCAAKFRAGRSSYYWGQGTQVTVSS | high polyreactivity
QVQLVESGGGLVQAGGSLPLSCAASGRTFNFYAMGWYRQAPGKERELVATISGGVSTYYADSVKGPFTISRDNAKITVYLQMNSLKPEDTAVYYCAKDSCYPQWDLDYWGQGTQVTVSS | high polyreactivity
QVQLVESGGGLVQAGGSLPLSCAASGRTFRRYGMGWYSNAHGKERELVAGISGYGTTNYADSVKGRFTISRDNAKNTVYLQMNSLKPEDSAVYYCAAGRPYYYTYSGLYYWGQGTQVTVSS | high polyreactivity
QVQLVESGGGLVQAGGSLPLSCAASGRTFRSNAMGWYRQAPGKERELVAAISWSGGSTYYADSVKGRFTISRDNAKTSVYFQLNSLKPEDTAVYYCAAYYYTRFEWGQGTQVTVSS | high polyreactivity
QVQLVESGGGLVQAGGSLPLSCAASGSIFSKYTMGWYRQAPGKERELDAAISRAGSTYYADSVKGRFTISRDNAKNSVYLQMNSLKPEDTAVYYCNARYRGVYPLIGIRRDYYYWGQGTQVTVSS | high polyreactivity
QVQLVESGGGLVQAGGSLPLSCAASGSILYFYAMGWYRQSPGKERELVAAISWTGGSTYYADSVKGRFTISRDNAKNTVYLQMNSLKPEDTAVYYCAAELWYEGYDYWGQGTQVTVSS | high polyreactivity
QVQLVESGGGLVQAGGSLPLSCAASGSIVTDNAMGWYRQAPGKERELVAANTSSGNTNYADSVKGRFTISRDNAKNTVDLQMKSLKPEDTAVYYCAADSYYTHWTDWLPVGEDYWGQVTQVTVSS | low polyreactivity
QVQLVESGGGLVQAGGSLPLSSAASGITLRYYAMRWYRQAPGKERELVAAMSGRGGGTYYADSVKGRFTISRDNAKNTVYLQMNSLKPEDTAVYYCNAVGQQQVEYEYWGQGTQVTVSS | high polyreactivity
QVQLVESGGGLVQAGGSLRCSCAASGFTFYSYAMGWYRQAPGKERELVAAITESGGSTYYADSVKGRFTISRDNAKNTVYLQMNSLKPEDTAVYYCAAQFAQRPQYYYFVWYDYWGQGTQVTVSS | low polyreactivity
QVQLVESGGGLVQAGGSLRCSCSASGGIFVNYAMGWSRPAPGKETELVAAISRSGGSTYYADSVKGRFTISRDNANNTVYLQMNSLKPEDTAVYYCAKRRVYYGSRYHYWGEGTQVTVSS | high polyreactivity
QVQLVESGGGLVQAGGSLRFSCAASGFTFRKNAMGWYRQAPGKERELVAAISRRGGRTYYADSVKGRFTISRDNAKNTVYLQMNSLKPEDTAVYYCNADEYGGSTGRKGRYNYWGQGTQVTVSS | low polyreactivity
QVQLVESGGGLVQAGGSLRFSCAASGFTFVYNAMGWYRQAPGKERELVARISVSGGSTYYADSVKGRFTISRDNAKNTVYLQMNSLKPEDTAVYYCAAELSAPQPDYQQKVDYYYWGQGTQVTVSS | low polyreactivity
QVQLVESGGGLVQAGGSLRFSCAASGFTFYLYTMGWYRQAPGKDRELVAAINYSGGTTYYADSVKGRFTISRDNAKNTVYLQMNSLKPEDTAVYYCAATVGYSYNPRKNYYWGQGTQVTVSS | low polyreactivity
QVQLVESGGGLVQAGGSLRFSCAASGITFRRYAMGWYRQAPGKERELVASISRGGSTYYADSVKGRFTISRDNAKNTVYLQMNSLKPEDTAVYYCAADVAWRYDYWGQGTQVNVSS | high polyreactivity
QVQLVESGGGLVQAGGSLRFSCAASGNILPSNAMGWYRQAPGKERELVAVINSSGNTNYADSVKGRFTISRDNAKKTVYLQMNSLKPEDTAVYYCVIWFRYDRARKLYYWGQGTQVTVSS | high polyreactivity
QVQLVESGGGLVQAGGSLRFSCAASGRIFGTYAMGWYRQAPGKERELVAAITQSGGRTYYADSVKGRFTISRDNAKNTVYLQMNSLKPEDTAVYDCNKVTYRGIGLGYDYWGQGTQVTVSS | high polyreactivity
QVQLVESGGGLVQAGGSLRFSCAASGRIFRYYAMGWYRQAPGKERELVAGIRTSGGRTYADSVKGRFTISRDNAKNTVYLQMNSLKPEDTAVYYCAAGRRTLSMYYWGQGTQVTVSS | high polyreactivity
QVQLVESGGGLVQAGGSLRFSCAASGRIFTFYAMGWYRQAPGKERELVAAITSGGSTYYADSVKGRFTISRDNAKNTVYLQMNSLKPEDTAVYYCNALHHTQHDYWGQGTQVTVSS | low polyreactivity

— the nanobody polyreactivity screen of Harvey et al. (2022)
